Measurements reported in patent publication US20240409598A1, “PEPTIDE INHIBITORS OF INTERLEUKIN-23 RECEPTOR” (Janssen Biotech, Inc., priority 2021, published 2024).
*1 amine or outer side, *2 acyl side, *3 side chain or, on linkers, in order; H or OH if unused. Bridges are numbered along the chain shown (N, C = ends). Primed or numbered codes have the meaning given here. [ ]: non-standard residue; d: D form. AEF(G) = 4-(2-guanidinoethoxy)phenylalanine, N=C(N)NCCOc1ccc(C[C@H](N[*:1])C(=O)[*:2])cc1; Trp(7-Me) = Cc1cccc2c(C[C@H](N)C(=O)O)c[nH]c12; 3Pal(5-Me) = Cc1cncc(C[C@H](N)C(=O)O)c1; 2Nal = N[C@@H](Cc1ccc2ccccc2c1)C(=O)O; 3Pal = N[C@@H](Cc1cccnc1)C(=O)O; Pen = CC(C)(S)[C@H](N)C(=O)O; αMeC = C[C@](N)(CS)C(=O)O; AEF′ = not defined here; Abu = CC[C@H](N)C(=O)O; THP = not defined here; Sar = CNCC(=O)O

T1: interleukin-23 receptor (IL-23R) (UniProt Q5VWK5 24-629, limits assumed)
T1 sequence (looked up): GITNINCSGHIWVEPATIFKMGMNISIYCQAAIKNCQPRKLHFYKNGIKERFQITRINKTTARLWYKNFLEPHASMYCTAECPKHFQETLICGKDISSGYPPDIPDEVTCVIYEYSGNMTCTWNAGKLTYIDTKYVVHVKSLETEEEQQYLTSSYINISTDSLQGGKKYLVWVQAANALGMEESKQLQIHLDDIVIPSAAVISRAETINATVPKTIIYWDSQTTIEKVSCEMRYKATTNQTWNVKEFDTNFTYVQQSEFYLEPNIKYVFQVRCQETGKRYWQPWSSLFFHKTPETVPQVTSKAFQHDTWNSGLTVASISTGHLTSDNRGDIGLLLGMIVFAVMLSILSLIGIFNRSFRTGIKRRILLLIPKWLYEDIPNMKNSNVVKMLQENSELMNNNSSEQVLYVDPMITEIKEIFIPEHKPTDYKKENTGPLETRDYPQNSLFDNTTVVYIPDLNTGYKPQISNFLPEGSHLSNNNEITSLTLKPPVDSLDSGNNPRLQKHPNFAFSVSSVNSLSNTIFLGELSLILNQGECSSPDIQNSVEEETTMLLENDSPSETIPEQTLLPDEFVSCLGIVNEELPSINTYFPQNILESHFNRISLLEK


Legend:
[1] = system: peripheral blood mononuclear cells (PBMCs); experiment: PBMC pSTAT3 Assay; format: cell-based; details: PBMCs from healthy donors; IL-23 5 ng/ml; 30 minutes stimulation
Method: Cryopreserved peripheral blood mononuclear cells (PBMCs) from healthy donors were thawed and washed twice in ImmunoCult-XF T cell expansion medium (XF-TCEM) supplemented with CTL anti-aggregate wash. The cells were counted, resuspended at 2×10^5 cells per mL XF-TCEM supplemented with penicillin/streptomycin and 100 ng/ml […] (BioLegend, 579404), and cultured in tissue culture flasks coated with anti-CD3 (eBioscience, 16-0037-85 or BD Pharmingen, 555329) at 37° C. in 5% CO2. On day 4 of culture, PBMCs were collected, washed twice in RPMI-1640 supplemented with 0.1% BSA (RPMI-BSA), and incubated in RPMI-BSA in upright tissue culture flasks for 4 hours at 37° C. in 5% CO2. Following this ‘starvation,’ a total of 6×10^4 cells in 30 μL RPMI-BSA was transferred into each well of a 384-well plate pre-spotted with peptide or DMSO. The cells were incubated for 30 minutes prior to the addition of IL-23 at a final concentration of 5 ng/ml. The cells were stimulated with cytokine for 30 minutes at 370C in 5% CO2, transferred onto ice for 10 minutes, and lysed. Cell lysates were stored at −80° C. until phosphorylated STAT3 was measured using the phospho-STAT panel kit (Meso Scale Discovery, K15202D).

[2] = molecular target: T1, interleukin-23 receptor (IL-23R); experiment: cell-based or functional assay
[3] = molecular target: T1, interleukin-23 receptor (IL-23R); experiment: cell-based or functional assay; remark: listed apart in the source

Row | Molecule | IC50, IL23R Reporter Assay [2] [nM] | PBMC pSTAT3 IC50 [3] [pM] | IC50 [1] [nM]
1 | MeCO-r-Abu (1)-N-T-W-K(Ac)-aMeC (1)-AEF-2Nal-THP-E-N-3Pya-Sar-CONH2 [compound 478] | – | – | 0.015
2 | MeCO-r-Pen-N-T-7MeW-K(Ac)-Pen-AEF-2Nal-THP-E-N-5MePyridinAla-Sar-CONH2 [compound 345] | – | – | 0.0076

Second part, led by results:

Row | IC50, IL23R Reporter Assay [2] [nM] | PBMC pSTAT3 IC50 [3] [pM] | Molecule | IC50 [1] [nM]
3 | 91 | 5.5 | Ac-[Pen]NT[Trp(7-Me)]K(Ac)[Pen][AEF(G)][2Nal][THP]EN[3Pal][Sar]-NH2 (disulfide 1-6; reading uncertain; also: printed as MeCO-Pen-N-T-7MeW-K(Ac)-Pen-AEF(G)-2Nal-THP-E-N-3Pya-Sar-CONH2) [Compound 477] | –
4 | 5 | 7.6 | Ac-[dR][Pen]NT[Trp(7-Me)]K(Ac)[Pen][AEF′][2Nal][THP]EN[3Pal(5-Me)][Sar]-NH2 (disulfide 2-7; reading uncertain; also: printed as MeCO-r-Pen-N-T-7MeW-K(Ac)-Pen-AEF-2Nal-THP-E-N-5MePyridinAla-Sar-CONH2) [Compound 345] | –
5 | – | 15 | Ac-[dR][Abu]NTWK(Ac)[αMeC][AEF′][2Nal][THP]ENX[Sar]-NH2 (thioether 2-7; not fully specified (residue 13); printed as MeCO-r-Abu (1)-N-T-W-K(Ac)-aMeC (1)-AEF-2Nal-THP-E-N-3Pya-Sar-CONH2) [Compound 478] | –
